In the supplement of paper PMC7877785:
± gives the uncertainty stated by the source.

Assay: self-splicing fitness, log relative to wild type (ln ratio); higher = more splicing; Tetrahymena group I intron in knt gene, E. coli kanamycin selection, DiMSum; sequences stand for … in CUCUCU…GGAGGGAAAAGUUAUCAGGCAUGCACCUGGUAGCUAGUCUUUAAACCAAUAGAUUGCAUCGGUUUAAAAGGCAAGACCGUCAAAUUGCGGGAAAGGGGUCAACAGCCGUUCAGUACCAAGUCUCAGGGGAAACUUUGAGAUGGCCUUGCAAAGGGUAUGGUAAUAAGCUGACGGACAUGGUCCUAACCACGCAGCCAAGUCCUAAGUCAACAGAUCUUCUGUUGAUAUGGAUGCAGUUCACAGACUAAAUGUCGGUCGGGGAAGAUGUAUUCUUCUCAUAAGAUAUAGUCGGACCUCUCCUUAAUGGGAGCUAGCGGAUGAAGUGAUGCAACACUGGAGCCGCUGGGAACUAAUUUGUAUGCGAAAGUAUAUUGAUUAGUUUUGGAGUACUCGUGGUCG
Procedure, shortened: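 A randomised library covering all eight P1ex-region intron nucleotides was built with the intron in the knt kanamycin-resistance gene on pET-22b(+) and held in E. coli BL21(DE3). Cells were grown overnight at 37°C or 30°C on LB agar, with or without 25 μg/mL kanamycin, plus 100 μg/mL carbenicillin, 50 μM IPTG and 0.2% rhamnose, and pooled colonies were amplicon-sequenced on an Illumina HiSeq 2500. DiMSum fitness is the error-weighted combination of wild-type-normalised replicate fold changes, kanamycin versus none.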

Sequence | self-splicing fitness (ln) (30 °C) | self-splicing fitness (ln) (37 °C)
UGAAAGCAAUAUUACGAUAG | -1.07 ± 0.098 | -0.612 ± 0.098
UGAAAGCAAUAUUACGCAAU | -2.16 ± 0.24 | 0.457 ± 0.23
UGAAAGCAAUAUUACGCAGU | -3.25 ± 0.22 | -1.3 ± 0.13
UGAAAGCAAUAUUACGCCGG | -0.876 ± 0.11 | -0.346 ± 0.15
UGAAAGCAAUAUUACGCGUC | -2.59 ± 0.31 | -2.56 ± 0.34
UGAAAGCAAUAUUACGGCUC | -1.4 ± 0.13 | -0.842 ± 0.12
UGAAAGCAAUAUUACGGGGC | -3.89 ± 0.23 | -2.73 ± 0.19
UGAAAGCAAUAUUACGGUAC | -3.27 ± 0.32 | -2.07 ± 0.24
UGAAAGCAAUAUUACGGUUU | -1.87 ± 0.1 | -1.16 ± 0.12
UGAAAGCAAUAUUACGUACU | -0.121 ± 0.089 | -0.476 ± 0.091
UGAAAGCAAUAUUACGUCUC | -3.36 ± 0.24 | -2.18 ± 0.23
UGAAAGCAAUAUUACGUGCA | 0.0492 ± 0.078 | 0.75 ± 0.098
UGAAAGCAAUAUUACGUGUG | -1.67 ± 0.077 | -0.52 ± 0.081
UGAAAGCAAUAUUACGUUAU | -3.73 ± 0.19 | -1.76 ± 0.11
UGAAAGCAAUAUUACGUUGG | -2.36 ± 0.091 | -1.66 ± 0.11
UGAAAGCAAUAUUACGUUUG | -2.94 ± 0.13 | -0.682 ± 0.11
UGACAGCAAUAUUACGAACG | 0.00619 ± 0.095 | 0.256 ± 0.1
UGACAGCAAUAUUACGACAA | -0.197 ± 0.087 | 0.15 ± 0.1
UGACAGCAAUAUUACGACCA | -0.143 ± 0.1 | 0.216 ± 0.15

Sequence | self-splicing fitness (ln) (30 °C) | self-splicing fitness (ln) (37 °C)
UGACAGCAAUAUUACGACUG | -0.341 ± 0.06 | 0.371 ± 0.091
UGACAGCAAUAUUACGAGUG | -1.09 ± 0.054 | -0.833 ± 0.077
UGACAGCAAUAUUACGCAAG | -3.51 ± 0.27 | -2.73 ± 0.21
UGACAGCAAUAUUACGCCGG | -0.618 ± 0.12 | -0.791 ± 0.15
UGACAGCAAUAUUACGCCUC | -3.41 ± 0.26 | -3.24 ± 0.47
UGACAGCAAUAUUACGCCUG | -0.292 ± 0.1 | 0.595 ± 0.14
UGACAGCAAUAUUACGCUCU | -0.946 ± 0.083 | -0.389 ± 0.093
UGACAGCAAUAUUACGGAGG | -4.41 ± 0.29 | -3.93 ± 0.21
UGACAGCAAUAUUACGGAUC | -4.78 ± 0.32 | -2.21 ± 0.16
UGACAGCAAUAUUACGGCCU | -0.801 ± 0.068 | 0.131 ± 0.078
UGACAGCAAUAUUACGGCUA | -0.14 ± 0.079 | 0.942 ± 0.11
UGACAGCAAUAUUACGGCUC | -1.37 ± 0.16 | -0.546 ± 0.17
UGACAGCAAUAUUACGGUAU | -3.58 ± 0.2 | -2.45 ± 0.21
UGACAGCAAUAUUACGGUUG | -2.49 ± 0.13 | -1.56 ± 0.15
UGACAGCAAUAUUACGUAUG | -1.56 ± 0.058 | -0.368 ± 0.073
UGACAGCAAUAUUACGUGCG | -1.12 ± 0.086 | -0.119 ± 0.097
UGACAGCAAUAUUACGUUUA | -0.565 ± 0.061 | -0.556 ± 0.07
UGAGAGCAAUAUUACGAAAA | – | 0.153 ± 0.41
